Laboratory results as given in paper PMC2169435.

Key:
[1] = molecular target: PS2 COOH-terminal 39-amino acid bait (residues K410-I448) (human) (UniProt P49810); assay: two-hybrid
[2] = molecular target: PS1 COOH-terminal bait (human); assay: two-hybrid

Sequence of PS2 COOH-terminal 39-amino acid bait (residues K410-I448) (human) (P49810 410-448): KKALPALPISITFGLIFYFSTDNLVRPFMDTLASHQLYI

Row | Substance | fold beta-galactosidase activity over negative-control baits [1] | fold beta-galactosidase activity over negative-control baits [2]
1 | near full-length ubiquilin Y2H prey clone (residues 37-595) (domain or fragment) | > 55 fold | > 12 fold
2 | ubiquilin Y2H prey clone encoding the COOH-terminal 218 residues (domain or fragment) | > 55 fold | –
